Measurements published in publication PMC9241815, “Role of the Two-Component System CiaRH in the Regulation of Efflux Pump SatAB and Its Correlation with Fluoroquinolone Susceptibility”.

Experiments:
[1] = target: SatR (Streptococcus suis (WT strain, name not in the material)) (UniProt G9CHX9); experiment: BLI; conditions: EMSA: Beyotime EMSA binding buffer, 20 min, room temperature, 4% native PAGE; proteins dialyzed in 25 mM Tris pH 7.4, 150 mM NaCl, 5% glycerol, 0.5 mM EDTA …
[2] = target: CiaR, phosphorylated (Streptococcus suis (WT strain, name not in the material)) (UniProt A0A0H3MUU9); experiment: BLI; conditions: EMSA: Beyotime EMSA binding buffer, 20 min, room temperature, 4% native PAGE; proteins dialyzed in 25 mM Tris pH 7.4, 150 mM NaCl, 5% glycerol, 0.5 mM EDTA …
SatR [3] = target: T1, SatR (Streptococcus suis (WT strain, name not …, UniProt G9CHX9 1-149)); experiment: EMSA; 200-800 ng SatR; EMSA: Beyotime EMSA binding buffer, 20 min, room temperature, 4% native PAGE; proteins dialyzed in 25 mM Tris pH 7.4, 150 mM NaCl, 5% glycerol, 0.5 mM EDTA, 1 mM DTT; BLI (Octet RED96) conditions not in material; conditions: protein: recombinant; tags: C-terminal 6xHis (from primer; pET-30a(+)); chain copies: 2; label: biotin 3' end; blunt
SatR [4] = target: T1, SatR; experiment: EMSA; 800 ng SatR; EMSA: Beyotime EMSA binding buffer, 20 min, room temperature, 4% native PAGE; proteins dialyzed in 25 mM Tris pH 7.4, 150 mM NaCl, 5% glycerol, 0.5 mM EDTA, 1 mM DTT; BLI (Octet RED96) conditions not in material; conditions: protein: recombinant; tags: C-terminal 6xHis (from primer; pET-30a(+)); chain copies: 2; label: biotin 3' end; blunt

Molecule satAB promoter (Octet) has a Kd [1] of 61 nM and a Kd [2] of 434 nM.

B1: satRAB promoter EMSA probe (dsDNA)
DNA 1: TTGACAATAGTTCTTAAGAGAACTATAATAGTTCTCATGGTAATTATTTTCGTAGAAAG
DNA 2: CTTTCTACGAAAATAATTACCATGAGAACTATTATAGTTCTCTTAAGAACTATTGTCAA
B1: binds (SatR [3]).

B2: satAB internal fragment (EMSAneg-satR) (dsDNA)
DNA 1: CTCGCTTGGCCTTGGTGACCATTGCTTCTACGCCAGTTGCCTTGATTGCCTTGGTCGTT
DNA 2: AACGACCAAGGCAATCAAGGCAACTGGCGTAGAAGCAATGGTCACCAAGGCCAAGCGAG
B2: no binding (SatR [4]).
